How the values were obtained:
[1] = substrate: CC(=O)N[C@@H](C)C(=O)N[C@@H](CC(C)C)C(=O)N[C@@H](CCCNC(=N)N)C(=O)N[C@@H](CCCNC(=N)N)C(=O)N[C@@H](C)C(=O)N[C@@H](CO)C(=O)N[C@@H](CC(C)C)C(=O)N[C@@H](CSCc1ccc2c(S(=O)(=O)N(C)C)ccc(O)c2n1)C(=O)N[C@@H](C)C(=O)N[C@@H](C)C(N)=O; assay: (§1) Activity of Aurora A
[2] = substrate: CC(=O)N[C@@H](C)C(=O)N[C@@H](CC(C)C)C(=O)N[C@@H](CCCNC(=N)N)C(=O)N[C@@H](CCCNC(=N)N)C(=O)N[C@@H](Cc1ccccc1)C(=O)N[C@@H](CO)C(=O)N[C@@H](CC(C)C)C(=O)N[C@@H](CSCc1ccc2c(S(=O)(=O)N(C)C)ccc(O)c2n1)C(=O)NCC(=O)N[C@@H](C)C(N)=O; assay: as §1
[3] = substrate: CC(=O)N[C@@H](C)C(=O)NCC(=O)N[C@@H](CCCNC(=N)N)C(=O)N[C@@H](CCCNC(=N)N)C(=O)N[C@@H](Cc1ccc(O)cc1)C(=O)N[C@@H](CO)C(=O)N[C@@H](CC(C)C)C(=O)N[C@@H](CSCc1ccc2c(S(=O)(=O)N(C)C)ccc(O)c2n1)C(=O)N[C@H](C)C(=O)N[C@@H](C)C(N)=O; assay: as §1
[4] = substrate: CC(=O)N[C@@H](C)C(=O)N[C@@H](CC(C)C)C(=O)N[C@@H](CCCNC(=N)N)C(=O)N[C@@H](CCCNC(=N)N)C(=O)N[C@@H](Cc1ccccc1)C(=O)N[C@@H](CO)C(=O)N[C@@H](CC(C)C)C(=O)N[C@@H](CSCc1ccc2c(S(=O)(=O)N(C)C)ccc(O)c2n1)C(=O)N[C@@H](C)C(=O)N[C@@H](C)C(N)=O; assay: as §1
[5] = substrate: CC(=O)N[C@@H](C)C(=O)N[C@@H](CC(C)C)C(=O)N[C@@H](CCCNC(=N)N)C(=O)N[C@@H](CCCNC(=N)N)C(=O)N[C@@H](C)C(=O)N[C@@H](CO)C(=O)N[C@@H](CC(C)C)C(=O)N[C@@H](CSCc1ccc2c(S(=O)(=O)N(C)C)ccc(O)c2n1)C(=O)N[C@@H](C)C(=O)N[C@@H](C)C(N)=O; assay: (§2) Ratio of Kcat to Km for Aurora A
[6] = substrate: CC(=O)N[C@@H](C)C(=O)N[C@@H](CC(C)C)C(=O)N[C@@H](CCCNC(=N)N)C(=O)N[C@@H](CCCNC(=N)N)C(=O)N[C@@H](Cc1ccccc1)C(=O)N[C@@H](CO)C(=O)N[C@@H](CC(C)C)C(=O)N[C@@H](CSCc1ccc2c(S(=O)(=O)N(C)C)ccc(O)c2n1)C(=O)NCC(=O)N[C@@H](C)C(N)=O; assay: as §2
[7] = substrate: CC(=O)N[C@@H](C)C(=O)NCC(=O)N[C@@H](CCCNC(=N)N)C(=O)N[C@@H](CCCNC(=N)N)C(=O)N[C@@H](Cc1ccc(O)cc1)C(=O)N[C@@H](CO)C(=O)N[C@@H](CC(C)C)C(=O)N[C@@H](CSCc1ccc2c(S(=O)(=O)N(C)C)ccc(O)c2n1)C(=O)N[C@H](C)C(=O)N[C@@H](C)C(N)=O; assay: as §2
[8] = substrate: CC(=O)N[C@@H](C)C(=O)N[C@@H](CC(C)C)C(=O)N[C@@H](CCCNC(=N)N)C(=O)N[C@@H](CCCNC(=N)N)C(=O)N[C@@H](Cc1ccccc1)C(=O)N[C@@H](CO)C(=O)N[C@@H](CC(C)C)C(=O)N[C@@H](CSCc1ccc2c(S(=O)(=O)N(C)C)ccc(O)c2n1)C(=O)N[C@@H](C)C(=O)N[C@@H](C)C(N)=O; assay: as §2

B1: Aurora kinase A (Homo sapiens), O14965 (protein)
chain: MDRSKENCISGPVKATAPVGGPKRVLVTQQFPCQNPLPVNSGQAQRVLCPSNSSQRIPLQAQKLVSSHKPVQNQKQKQLQATSVPHPVSRPLNNTQKSKQPLPSAPENNPEEELASKQKNEESKKRQWALEDFEIGRPLGKGKFGNVYLAREKQSKFILALKVLFKAQLEKAGVEHQLRREVEIQSHLRHPNILRLYGYFHDATRVYLILEYAPLGTVYRELQKLSKFDEQRTATYITELANALSYCHSKRVIHRDIKPENLLLGSAGELKIADFGWSVHAPSSRRTTLCGTLDYLPPEMIEGRMHDEKVDLWSLGVLCYEFLVGKPPFEANTYQETYKRISRVEFTFPDFVTEGARDLISRLLKHNPSQRPMLREVLEHPWITANSSKPSNCQNKESASKQS
[1]
  Km: 298 µM
  Vmax: 1.7 µmol/min/mg
[2]
  Km: 57.1 µM
  Vmax: 2.2 µmol/min/mg
[3]
  Km: 65 µM
  Vmax: 1.8 µmol/min/mg
[4]
  Km: 152 µM
  Vmax: 2.6 µmol/min/mg
[5]
  kcat/Km: 16700 M⁻¹ s⁻¹
[6]
  kcat/Km: 117000 M⁻¹ s⁻¹
[7]
  kcat/Km: 83300 M⁻¹ s⁻¹
[8]
  kcat/Km: 50000 M⁻¹ s⁻¹
